# Experimental data as given in paper PMC2766422.
# Like-named read-outs stand apart in the source and are kept apart here.
# Key:
# PTB1 [1] = molecular target: T1, PTB1 (human, UniProt P26599-1 1-531); assay: EMSA
# PTB1:12 (RRM1-RRM2) [2] = molecular target: T2, PTB1:12 (RRM1-RRM2) (human, UniProt P26599-1 1-301); assay: EMSA
# PTB1:34 (RRM3-RRM4) [3] = molecular target: T3, PTB1:34 (RRM3-RRM4) (human, UniProt P26599-1 334-531); assay: EMSA
# PTB1/W4 [4] = molecular target: T4, PTB1/W4 (human, UniProt P26599-1 1-531, F487W); assay: EMSA
# PTB1/W3 [5] = molecular target: T5, PTB1/W3 (human, UniProt P26599-1 1-531, F371W); assay: EMSA
# PTB1/W1 = PTB1/W1 (human, UniProt P26599-1 1-531, F98W); assay: EMSA
# PTB1 [6] = molecular target: T1, PTB1; assay: EMSA; remark: listed apart in the source
# PTB1:12 (RRM1-RRM2) [7] = molecular target: T2, PTB1:12 (RRM1-RRM2); assay: EMSA; remark: listed apart in the source
# PTB1:34 (RRM3-RRM4) [8] = molecular target: T3, PTB1:34 (RRM3-RRM4); assay: EMSA; remark: listed apart in the source
# PTB1 [9] = molecular target: T1, PTB1; assay: EMSA; remark: listed apart in the source
# PTB1/W3 [10] = molecular target: T5, PTB1/W3; assay: Trp fluorescence quenching
# PTB1/W4 [11] = molecular target: T4, PTB1/W4; assay: Trp fluorescence quenching
# PTB1:12 (RRM1-RRM2) [12] = molecular target: T2, PTB1:12 (RRM1-RRM2); assay: EMSA; remark: listed apart in the source
# PTB1 [13] = molecular target: T1, PTB1; assay: EMSA; remark: listed apart in the source
# PTB1 [14] = molecular target: T1, PTB1; assay: filter binding
# PTB1 [15] = molecular target: T1, PTB1; assay: EMSA; remark: listed apart in the source
# PTB1:34 (RRM3-RRM4) [16] = molecular target: T3, PTB1:34 (RRM3-RRM4); assay: EMSA; remark: listed apart in the source
# PTB1 [17] = molecular target: T1, PTB1; assay: EMSA; remark: listed apart in the source
binder,measurement,setting,value
GGGACUACGCAAUUCUCUUUUCUGUCUACAAAUCCAAAG (ssRNA) [GABA RNA11],Kd,PTB1 [1],15 ± 2 nM
same,binding result,PTB1:12 (RRM1-RRM2) [2],no binding
same,Kd,PTB1:34 (RRM3-RRM4) [3],50 ± 3 nM
same,binding signal,PTB1/W4 [4],~2 fold lower affinity than PTB1
same,binding signal,PTB1/W3 [5],~2 fold lower affinity than PTB1
same,binding signal,PTB1/W1,~2 fold lower affinity than PTB1
GGGUCACGGCUAGCUGUGAAAGGUCCGUGAG (structured_RNA) [HCV X SL2],binding result,PTB1 [6],no binding
GGGCUUCUUCGGAUGUUUUCCUUCAAG (structured_RNA) [GABAA gamma2 exon 4 RNA],binding result,PTB1:12 (RRM1-RRM2) [7],no binding
same,binding result,PTB1:34 (RRM3-RRM4) [8],no binding
same,binding result,PTB1 [6],no binding
GGAUCCUUCUCUCUGCUUCUCUCUCGCUGGCCCUUAGGAGG (structured_RNA) [c-src 5' SL (39-mer)],Kd,PTB1 [9],45 ± 2 nM
GGAGACUUGGUGGCUCCAUCUUAGCCCUA (structured_RNA) [HCV X SL3],binding result,PTB1/W3 [10],binds
same,binding result,PTB1/W4 [11],binds
same,Kd,PTB1:12 (RRM1-RRM2) [12],1600 ± 600 nM
same,Kd,PTB1 [13],285 ± 120 nM
same,Kd,PTB1 [14],410 ± 30 nM
"c-src 5' SL + N1 (78-mer, RNA78) (structured_RNA) RNA: GGCAACCCUCUCCUUCUCUCUGCUUCUCUCUCGCUGGCCCUUAGGAGGAAGGUGCCAUCGAUGUCAGGUGUGUACCGAGG",Kd,PTB1 [15],80 ± 2 nM
GGGAUCGGUGCCAUCGAUGUCAGGUGUGUACCCCUUAGGAGG (structured_RNA) [c-src exon N1 RNA],binding result,PTB1:12 (RRM1-RRM2) [7],no binding
same,binding result,PTB1:34 (RRM3-RRM4) [8],no binding
same,binding result,PTB1 [6],no binding
c-src 3' end RNA (structured_RNA) RNA: GGGAUCGCUUCGCUGAGGCUGGGGGCUGCUCUCUGCAUGUGCUUCCUCCACCGCCCCUGUGUGUUUCCAGCUCUCUCCCCGUCCCUUUAGCUUACCCUGCAUCCCACCUGUAUGAGCCGUACCC,binding result,PTB1:34 (RRM3-RRM4) [16],binds
same,binding result,PTB1 [17],binds
